Source: publication PMC11221534, “A minimal RNA substrate with dual fluorescent probes enables rapid kinetics and provides insight into bacterial RNase P active site interactions”

T1: E. coli RNase P holoenzyme (C5 protein + P RNA), wild type (Escherichia coli, UniProt P0A7Y8 1-119)
T1 sequence: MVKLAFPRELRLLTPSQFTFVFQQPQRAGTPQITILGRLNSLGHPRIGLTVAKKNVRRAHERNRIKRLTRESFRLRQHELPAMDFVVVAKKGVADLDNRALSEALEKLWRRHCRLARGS

T2: E. coli RNase P holoenzyme, P RNA C70U (Escherichia coli, UniProt P0A7Y8 1-119)
T2 sequence: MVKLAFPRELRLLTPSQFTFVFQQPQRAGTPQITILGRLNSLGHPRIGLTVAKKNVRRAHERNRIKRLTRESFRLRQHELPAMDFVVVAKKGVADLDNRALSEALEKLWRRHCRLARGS

T3: E. coli RNase P holoenzyme, P RNA U69A (Escherichia coli, UniProt P0A7Y8 1-119)
T3 sequence: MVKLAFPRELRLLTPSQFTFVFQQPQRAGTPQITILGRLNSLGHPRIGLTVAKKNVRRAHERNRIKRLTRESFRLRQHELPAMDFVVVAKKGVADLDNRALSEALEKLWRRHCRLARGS


Key:
[1] = target: T1, E. coli RNase P holoenzyme (C5 protein …); assay: stopped-flow 2Ap fluorescence, global fit (k-1/k1); 17.5 mM Mg2+; k1 0.43e6 M-1 s-1, k-1 0.084 s-1; 50 mM MES pH 6, 100 mM NaCl, 17.5 mM MgCl2 (or CaCl2), 0.015% Triton X-100 reduced, 37 C (PAGE single turnover); stopped-flow in similar buffer; conditions: protein: recombinant; label: 2-aminopurine; 12 bp continuous helix with one U-G wobble; 5' overhang 9 nt, 3' overhang 4 nt (GCCA)
[2] = target: T2, E. coli RNase P holoenzyme, P RNA C70U; assay: single-turnover kinetics by PAGE (K'); 17.5 mM Mg2+; imprecise, very slow cleavage; 50 mM MES pH 6, 100 mM NaCl, 17.5 mM MgCl2 (or CaCl2), 0.015% Triton X-100 reduced, 37 C (PAGE single turnover); stopped-flow in similar buffer; conditions: protein: recombinant; label: 5' Cy3 on strand 1; 12 bp continuous helix with one U-G wobble; 5' overhang 9 nt, 3' overhang 4 nt (GCCA)
[3] = target: T3, E. coli RNase P holoenzyme, P RNA U69A; assay: as above; conditions: protein: recombinant; label: 5' Cy3 on strand 1; 12 bp continuous helix with one U-G wobble; 5' overhang 9 nt, 3' overhang 4 nt (GCCA)
[4] = target: T1, E. coli RNase P holoenzyme (C5 protein …); assay: single-turnover kinetics by PAGE (K' from kobs vs [E]); 17.5 mM Mg2+, pH 6; K' approximates Kd; 50 mM MES pH 6, 100 mM NaCl, 17.5 mM MgCl2 (or CaCl2), 0.015% Triton X-100 reduced, 37 C (PAGE single turnover); stopped-flow in similar buffer; conditions: protein: recombinant; label: 5' Cy3 on strand 1; 12 bp continuous helix with one U-G wobble; 5' overhang 9 nt, 3' overhang 4 nt (GCCA)

| Binder | Kd [1] [nM] | Kd [2] [nM] | Kd [3] [nM] | Kd [4] [nM] |
| --- | --- | --- | --- | --- |
| 5'Ap(-2)-MD1 (dsRNA, 2-aminopurine at position 8 (N-2), written A; Table 1 prints a 5' Cy3 (apparently swapped with 5'Cy3-MD1)) RNA 1: ACCCAAAAUGGUCCGGGCGGG RNA 2: CCCGUCCGGACCGCCA | 195 | – | – | – |
| 5'Cy3-MD1 (dsRNA, 2-aminopurine at position 8 (N-2) as printed, written A; Table 1 appears to swap the Cy3 between 5'Cy3-MD1 and 5'Ap(-2)-MD1) RNA 1: ACCCAAAAUGGUCCGGGCGGG RNA 2: CCCGUCCGGACCGCCA | – | < 250 | < 250 | 189 |
